According to patent publication US20130122013A1 (Eli Lilly, published 2013):

Assays:
human ferroportin 1 [1] = target: T1, human ferroportin 1 (human, UniProt Q9NP59 1-571); assay: inhibition of binding of 30 nM biotinylated hepcidin to FPN/293 cells, ELISA of lysate; antibody at 2000 nM; mean
T1 construct: also called human FPN1; FPN1
T1 sequence: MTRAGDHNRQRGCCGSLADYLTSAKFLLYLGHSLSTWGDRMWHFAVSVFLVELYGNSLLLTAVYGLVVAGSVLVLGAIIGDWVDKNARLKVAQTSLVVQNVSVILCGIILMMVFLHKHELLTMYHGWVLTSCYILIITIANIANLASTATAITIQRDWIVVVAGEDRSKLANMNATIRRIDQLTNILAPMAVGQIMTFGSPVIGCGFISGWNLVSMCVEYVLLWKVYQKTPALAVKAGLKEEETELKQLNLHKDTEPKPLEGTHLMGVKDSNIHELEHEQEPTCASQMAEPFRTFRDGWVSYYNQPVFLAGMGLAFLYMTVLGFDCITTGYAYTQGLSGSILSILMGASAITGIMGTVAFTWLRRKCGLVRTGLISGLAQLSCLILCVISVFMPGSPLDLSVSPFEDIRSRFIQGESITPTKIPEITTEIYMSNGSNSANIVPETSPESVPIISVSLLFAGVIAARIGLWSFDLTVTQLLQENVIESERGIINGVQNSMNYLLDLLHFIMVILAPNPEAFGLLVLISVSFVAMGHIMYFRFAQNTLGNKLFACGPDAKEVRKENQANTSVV
Method: (§1) Next, 65 μL of lysing buffer (0.5% Triton X-100, 10 mM EDTA) are added to all the wells and the plates are shaken for 10 minutes. Next, 50 μL of the solution in each well is transferred to individual wells of a streptavidin coated Greiner microtiter plate (60 μL of 2 μg/mL streptavidin (Sigma, St. Louis, Mo.; catalog no. S4762) in PBS, incubated at 4° C. overnight, washed 2 times (0.1% Tween 20, TBS), blocked with casein/PBS), and then incubated for one hour at room temperature. […] After incubating one hour at room temperature, the plate is washed 4× and 50 μL of OPD substrate (Sigma; catalog no. P6912) is added. The reaction is stopped with 100 μL 1 N HCl after 4 minutes. Absorbance at 490 nm (A₄₉₀) is read using an appropriate ELISA plate reader.

human ferroportin 1 [2] = target: T1, human ferroportin 1; assay: inhibition of binding of 30 nM biotinylated hepcidin to FPN/293 cells, ELISA of lysate; antibody at 7.8 nM; mean
Method: as §1

human ferroportin 1 [3] = target: T1, human ferroportin 1; assay: cell-based or functional assay
human ferroportin 1 [4] = target: T1, human ferroportin 1; assay: inhibition of binding of 30 nM biotinylated hepcidin to FPN/293 cells, ELISA of lysate; antibody at 31.25 nM; mean
Method: as §1

human ferroportin 1 [5] = target: T1, human ferroportin 1; assay: inhibition of binding of 30 nM biotinylated hepcidin to FPN/293 cells, ELISA of lysate; antibody at 500 nM; mean
Method: as §1

human ferroportin 1 [6] = target: T1, human ferroportin 1; assay: inhibition of binding of 30 nM biotinylated hepcidin to FPN/293 cells, ELISA of lysate
Method: as §1

human ferroportin 1 [7] = target: T1, human ferroportin 1; assay: inhibition of binding of 30 nM biotinylated hepcidin to FPN/293 cells, ELISA of lysate; antibody at 125 nM; mean
Method: as §1

[8] = target: T2, human FPN1 C-terminally fused with GFP (human, UniProt Q9NP59 1-571, GFP reporter fused to the C-terminus ("FPN1 is C-terminally fused with GFP"). It is left out because the patent gives no letters for it.); assay: cell-based or functional assay
T2 sequence: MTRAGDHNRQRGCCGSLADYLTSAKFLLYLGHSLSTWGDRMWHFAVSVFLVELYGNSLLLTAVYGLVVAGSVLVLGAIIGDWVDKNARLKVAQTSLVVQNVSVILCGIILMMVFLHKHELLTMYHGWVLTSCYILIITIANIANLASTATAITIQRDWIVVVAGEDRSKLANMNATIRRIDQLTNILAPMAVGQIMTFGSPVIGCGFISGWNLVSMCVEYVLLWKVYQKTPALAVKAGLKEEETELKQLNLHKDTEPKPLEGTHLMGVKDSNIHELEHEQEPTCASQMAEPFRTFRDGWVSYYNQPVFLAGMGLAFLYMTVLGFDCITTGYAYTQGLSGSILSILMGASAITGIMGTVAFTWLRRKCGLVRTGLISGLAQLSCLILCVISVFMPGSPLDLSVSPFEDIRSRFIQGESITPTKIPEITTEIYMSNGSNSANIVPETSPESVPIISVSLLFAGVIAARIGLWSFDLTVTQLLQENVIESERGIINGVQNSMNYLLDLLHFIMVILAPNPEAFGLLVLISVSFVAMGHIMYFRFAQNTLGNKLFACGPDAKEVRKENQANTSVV

[9] = target: T2, human FPN1 C-terminally fused with GFP; assay: cell-based or functional assay; remark: listed apart in the source
[10] = target: T2, human FPN1 C-terminally fused with GFP; assay: SPR, Biacore T100, 37 C, 1:1 model; FPN1-GFP captured from cell lysate on rabbit anti-GFP antibody, Mab injected
Method: The affinities of FPN1 binding Fabs and Mabs may be determined on Biacore T100 and using 1:1 binding model in the Biacore T100 evaluation software (BIAcore® AB, Upsala, Sweden). […] FPN1 is C-terminally fused with GFP. Expression of FPN1-GFP is induced by 1-10 ng/mL doxycycline for 1-24 hours. Induced cells are harvested by scraping off from flasks and then washed with 1×PBS. Cell pellets can be stored at −80° C. before use. About five million induced cells are resuspended in 10 mM phosphate buffer with 0.2% Tween-20 and protease inhibitors, e.g., Complete™ Protease Inhibitor Cocktail Tablet (Roche Diagnostics Corp., Indianapolis, Ind.). Three cycles of freeze/thaw/sonication are used to lyse the cells. The lysate is diluted two-fold with Biacore running buffer and centrifuged to remove debris.
On Biacore T100, rabbit anti-GFP antibody or goat anti-GFP antibody is immobilized onto flow cell 1 to 4 of a CMS chip at 5000-15000 Rus. FPN1-GFP is captured onto flow cell 2, 3, or 4 from the lysate of induced cells. Flow cell 1 is used as reference. Then all flow cells are injected with different concentrations of antibodies to evaluate the binding and kinetics.

% Inhibition (human ferroportin 1 [1]): 54.7% | % Inhibition (human ferroportin 1 [2]): -2.8% | EC50 of inhibition of mature hepcidin induced increase in cellular ferritin, Caco-2 cells (human ferroportin 1 [3]): 360 nM | Percentage inhibition of mature hepcidin induced increase in cellular ferritin, Caco-2 cells, Mab at 2.22E-7 M (human ferroportin 1 [3]): 25.2% | Percentage inhibition of mature hepcidin induced increase in cellular ferritin, Caco-2 cells, Mab at 2.47E-8 M (human ferroportin 1 [3]): 3.4% | Percentage inhibition of mature hepcidin induced increase in cellular ferritin, Caco-2 cells, Mab at 2.7E-9 M (human ferroportin 1 [3]): 10.6% | Percentage inhibition of mature hepcidin induced increase in cellular ferritin, Caco-2 cells, Mab at 3.0E-10 M (human ferroportin 1 [3]): 7.3% | Percentage inhibition of mature hepcidin induced increase in cellular ferritin, Caco-2 cells, Mab at 6.67E-7 M (human ferroportin 1 [3]): 29.8% | Percentage inhibition of mature hepcidin induced increase in cellular ferritin, Caco-2 cells, Mab at 7.4E-8 M (human ferroportin 1 [3]): 12% | Percentage inhibition of mature hepcidin induced increase in cellular ferritin, Caco-2 cells, Mab at 8.0E-9 M (human ferroportin 1 [3]): 14.9% | Percentage inhibition of mature hepcidin induced increase in cellular ferritin, Caco-2 cells, Mab at 9.0E-10 M (human ferroportin 1 [3]): 8.6% | % Inhibition (human ferroportin 1 [4]): 4% | % Inhibition (human ferroportin 1 [5]): 64.7% | IC50 (human ferroportin 1 [6]): ~400 nM | % Inhibition (human ferroportin 1 [7]): 21.8% | Absolute IC50 of inhibition of hepcidin-25-induced internalization and degradation of FPN1-GFP [8]: 13.7 nM | Relative IC50 of inhibition of hepcidin-25-induced internalization and degradation of FPN1-GFP [8]: 10.2 nM | Top % Inhibition of hepcidin-25-induced internalization and degradation of FPN1-GFP [8]: 86.8% | Percent (%) Inhibition of Mature Human Hepcidin-induced Internalization and Degradation, Mab at 7.4 nM [9]: 28.1% | Percent (%) Inhibition of Mature Human Hepcidin-induced Internalization and Degradation, Mab at 22 nM [9]: 50.2% | Percent (%) Inhibition of Mature Human Hepcidin-induced Internalization and Degradation, Mab at 67 nM [9]: 55.7% | Percent (%) Inhibition of Mature Human Hepcidin-induced Internalization and Degradation, Mab at 200 nM [9]: 63.8% | Percent (%) Inhibition of Mature Human Hepcidin-induced Internalization and Degradation, Mab at 600 nM [9]: 66.4% | Kd [10]: 3.37 nM | koff [10]: 0.0011 s⁻¹ | kon [10]: 325000 M⁻¹ s⁻¹
B1: Mab 3D8 (antibody, human IgG4 S228P, kappa, F234A L235A, V domains shown)
VH: QVQLVQSGAEVKKPGSSVKVSCKASGYAFTSFLIEWVRQAPGQGLEWMGTSNPRTGGTKYKEKFRGRVTITADKSTSTAYMELSSLRSEDTAVYYCAREFFDYWGQGTTVTVSS
VL: DIQMTQSPSSLSASVGDRVTITCRASKSISKYTAWYQQKPGKAPKLLIYAGSKLHSGVPSRFSGSGSGTDFTLTISSLQPEDFATYYCQQHNEYPYTFGGGTKVEIKR
notes: Humanized form of mouse 1G9 with human heavy chain framework VH1-69 and light chain framework O2; also called human 3D8
